Key:
Test in all cases: affinity purification with mass spectrometry
Nup49 = Nup49 (Saccharomyces cerevisiae (strain ATCC …, UniProt Q02199))
Pom152 = Pom152 (Saccharomyces cerevisiae (strain ATCC …, UniProt P39685))
Nup57 = Nup57 (Saccharomyces cerevisiae (strain ATCC …, UniProt P48837))
Nsp1 = Nsp1 (Saccharomyces cerevisiae (strain ATCC …, UniProt P14907))
Nup192 = Nup192 (Saccharomyces cerevisiae (strain ATCC …, UniProt P47054))
Nic96 = Nic96 (Saccharomyces cerevisiae, UniProt P34077)
Pom34-ZZ = Pom34-ZZ (Saccharomyces cerevisiae (strain ATCC …, UniProt Q12445))

Sequence of Nup49 (Saccharomyces cerevisiae (Q02199 whole entry): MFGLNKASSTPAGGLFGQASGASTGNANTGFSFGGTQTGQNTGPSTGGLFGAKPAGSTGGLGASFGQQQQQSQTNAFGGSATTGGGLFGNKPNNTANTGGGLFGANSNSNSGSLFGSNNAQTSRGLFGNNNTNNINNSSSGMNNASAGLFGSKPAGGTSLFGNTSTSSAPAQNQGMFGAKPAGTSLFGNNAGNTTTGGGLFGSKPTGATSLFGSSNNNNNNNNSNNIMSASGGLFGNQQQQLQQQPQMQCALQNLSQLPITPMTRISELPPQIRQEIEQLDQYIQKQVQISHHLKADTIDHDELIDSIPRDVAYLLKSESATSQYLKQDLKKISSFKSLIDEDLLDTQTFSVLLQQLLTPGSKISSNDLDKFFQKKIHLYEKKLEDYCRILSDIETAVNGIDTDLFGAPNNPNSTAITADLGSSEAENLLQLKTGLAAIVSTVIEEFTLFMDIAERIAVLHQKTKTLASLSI
Sequence of Nup192 (Saccharomyces cerevisiae (P47054 whole entry): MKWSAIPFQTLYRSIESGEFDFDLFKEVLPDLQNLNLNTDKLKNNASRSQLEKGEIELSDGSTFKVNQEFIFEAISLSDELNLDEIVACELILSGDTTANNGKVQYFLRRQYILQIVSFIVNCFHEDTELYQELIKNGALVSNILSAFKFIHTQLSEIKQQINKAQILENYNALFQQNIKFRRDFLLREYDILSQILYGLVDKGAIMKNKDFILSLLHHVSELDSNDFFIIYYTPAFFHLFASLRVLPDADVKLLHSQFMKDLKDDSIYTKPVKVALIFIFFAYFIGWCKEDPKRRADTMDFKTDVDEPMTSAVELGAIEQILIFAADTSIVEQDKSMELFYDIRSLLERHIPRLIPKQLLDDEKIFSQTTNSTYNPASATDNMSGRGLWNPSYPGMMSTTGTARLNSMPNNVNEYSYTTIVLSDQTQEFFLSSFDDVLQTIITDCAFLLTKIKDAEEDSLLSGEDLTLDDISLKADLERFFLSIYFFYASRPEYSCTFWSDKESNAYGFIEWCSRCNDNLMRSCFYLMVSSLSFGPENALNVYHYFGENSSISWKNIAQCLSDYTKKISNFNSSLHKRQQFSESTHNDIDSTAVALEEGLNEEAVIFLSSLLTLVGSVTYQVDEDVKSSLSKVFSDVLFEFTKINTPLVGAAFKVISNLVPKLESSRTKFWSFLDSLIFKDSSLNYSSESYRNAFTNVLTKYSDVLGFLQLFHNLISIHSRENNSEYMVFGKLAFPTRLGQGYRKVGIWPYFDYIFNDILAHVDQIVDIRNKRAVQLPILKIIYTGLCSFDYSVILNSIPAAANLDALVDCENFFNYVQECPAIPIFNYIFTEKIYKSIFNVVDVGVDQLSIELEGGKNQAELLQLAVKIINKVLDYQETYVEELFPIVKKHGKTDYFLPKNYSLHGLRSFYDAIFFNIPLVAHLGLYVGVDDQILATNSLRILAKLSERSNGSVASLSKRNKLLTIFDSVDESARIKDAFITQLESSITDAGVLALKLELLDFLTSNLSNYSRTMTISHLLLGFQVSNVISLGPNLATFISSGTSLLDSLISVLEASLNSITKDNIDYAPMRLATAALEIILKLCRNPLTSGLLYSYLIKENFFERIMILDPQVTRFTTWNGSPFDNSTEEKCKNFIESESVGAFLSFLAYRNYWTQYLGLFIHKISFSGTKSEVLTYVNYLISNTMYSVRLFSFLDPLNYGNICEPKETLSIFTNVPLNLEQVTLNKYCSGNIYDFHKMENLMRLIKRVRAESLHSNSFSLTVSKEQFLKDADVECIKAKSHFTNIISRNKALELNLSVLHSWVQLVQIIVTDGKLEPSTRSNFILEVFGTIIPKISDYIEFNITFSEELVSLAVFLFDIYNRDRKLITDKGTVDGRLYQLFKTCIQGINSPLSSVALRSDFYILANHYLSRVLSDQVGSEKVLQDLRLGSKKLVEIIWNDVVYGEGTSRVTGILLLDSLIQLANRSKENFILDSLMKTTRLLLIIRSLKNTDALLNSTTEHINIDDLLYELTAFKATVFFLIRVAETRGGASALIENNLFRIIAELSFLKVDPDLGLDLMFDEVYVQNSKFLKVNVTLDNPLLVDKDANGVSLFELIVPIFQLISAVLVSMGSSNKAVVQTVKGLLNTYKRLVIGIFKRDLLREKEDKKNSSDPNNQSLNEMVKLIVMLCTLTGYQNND
Sequence of Pom152 (Saccharomyces cerevisiae (P39685 whole entry): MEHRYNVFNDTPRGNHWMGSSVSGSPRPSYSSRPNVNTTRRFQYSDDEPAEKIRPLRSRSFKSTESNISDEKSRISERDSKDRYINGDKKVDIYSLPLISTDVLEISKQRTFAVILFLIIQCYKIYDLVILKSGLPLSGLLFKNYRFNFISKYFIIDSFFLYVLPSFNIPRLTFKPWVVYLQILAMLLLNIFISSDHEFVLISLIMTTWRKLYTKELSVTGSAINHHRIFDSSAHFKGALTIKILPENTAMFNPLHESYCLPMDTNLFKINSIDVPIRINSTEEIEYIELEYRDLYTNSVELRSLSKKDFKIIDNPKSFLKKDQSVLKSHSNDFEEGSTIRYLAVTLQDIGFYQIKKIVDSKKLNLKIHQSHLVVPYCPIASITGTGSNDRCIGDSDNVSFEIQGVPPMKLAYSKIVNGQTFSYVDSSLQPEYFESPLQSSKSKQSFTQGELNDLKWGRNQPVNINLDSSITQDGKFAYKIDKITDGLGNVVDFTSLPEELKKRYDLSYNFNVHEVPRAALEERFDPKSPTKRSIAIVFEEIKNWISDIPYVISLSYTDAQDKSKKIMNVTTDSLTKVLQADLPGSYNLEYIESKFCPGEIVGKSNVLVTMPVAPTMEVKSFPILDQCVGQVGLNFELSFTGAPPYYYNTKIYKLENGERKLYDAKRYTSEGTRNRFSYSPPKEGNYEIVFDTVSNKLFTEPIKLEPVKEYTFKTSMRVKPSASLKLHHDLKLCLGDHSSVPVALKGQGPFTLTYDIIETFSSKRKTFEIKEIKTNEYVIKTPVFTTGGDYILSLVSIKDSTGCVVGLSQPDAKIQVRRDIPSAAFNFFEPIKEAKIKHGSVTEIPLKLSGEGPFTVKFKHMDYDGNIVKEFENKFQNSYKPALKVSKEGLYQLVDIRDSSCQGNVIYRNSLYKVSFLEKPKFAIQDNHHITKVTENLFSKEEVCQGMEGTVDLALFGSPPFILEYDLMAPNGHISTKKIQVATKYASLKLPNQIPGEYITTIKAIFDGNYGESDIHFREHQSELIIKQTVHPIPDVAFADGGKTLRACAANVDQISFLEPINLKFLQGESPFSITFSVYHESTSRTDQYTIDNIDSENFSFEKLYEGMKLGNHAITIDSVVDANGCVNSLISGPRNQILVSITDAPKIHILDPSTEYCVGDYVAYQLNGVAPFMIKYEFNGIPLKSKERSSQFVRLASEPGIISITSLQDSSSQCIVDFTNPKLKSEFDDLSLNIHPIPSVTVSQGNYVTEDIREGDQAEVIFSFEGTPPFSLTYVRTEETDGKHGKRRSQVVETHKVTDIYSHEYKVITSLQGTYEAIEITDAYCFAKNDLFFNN
Sequence of Nup57 (Saccharomyces cerevisiae (P48837 whole entry): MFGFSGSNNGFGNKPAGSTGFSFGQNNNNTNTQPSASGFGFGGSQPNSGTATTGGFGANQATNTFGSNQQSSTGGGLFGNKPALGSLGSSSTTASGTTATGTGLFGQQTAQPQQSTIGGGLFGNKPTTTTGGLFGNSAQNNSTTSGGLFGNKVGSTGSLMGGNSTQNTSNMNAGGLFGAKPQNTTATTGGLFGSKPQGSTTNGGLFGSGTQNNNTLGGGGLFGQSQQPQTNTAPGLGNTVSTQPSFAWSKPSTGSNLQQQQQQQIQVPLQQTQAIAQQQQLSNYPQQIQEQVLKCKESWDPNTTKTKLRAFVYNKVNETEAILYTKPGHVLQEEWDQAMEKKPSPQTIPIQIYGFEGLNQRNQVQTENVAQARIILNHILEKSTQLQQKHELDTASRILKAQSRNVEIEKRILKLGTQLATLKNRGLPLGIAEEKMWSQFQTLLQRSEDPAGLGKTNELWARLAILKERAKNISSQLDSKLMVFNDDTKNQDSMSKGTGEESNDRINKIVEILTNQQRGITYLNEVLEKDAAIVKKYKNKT
Sequence of Nic96 (P34077 whole entry): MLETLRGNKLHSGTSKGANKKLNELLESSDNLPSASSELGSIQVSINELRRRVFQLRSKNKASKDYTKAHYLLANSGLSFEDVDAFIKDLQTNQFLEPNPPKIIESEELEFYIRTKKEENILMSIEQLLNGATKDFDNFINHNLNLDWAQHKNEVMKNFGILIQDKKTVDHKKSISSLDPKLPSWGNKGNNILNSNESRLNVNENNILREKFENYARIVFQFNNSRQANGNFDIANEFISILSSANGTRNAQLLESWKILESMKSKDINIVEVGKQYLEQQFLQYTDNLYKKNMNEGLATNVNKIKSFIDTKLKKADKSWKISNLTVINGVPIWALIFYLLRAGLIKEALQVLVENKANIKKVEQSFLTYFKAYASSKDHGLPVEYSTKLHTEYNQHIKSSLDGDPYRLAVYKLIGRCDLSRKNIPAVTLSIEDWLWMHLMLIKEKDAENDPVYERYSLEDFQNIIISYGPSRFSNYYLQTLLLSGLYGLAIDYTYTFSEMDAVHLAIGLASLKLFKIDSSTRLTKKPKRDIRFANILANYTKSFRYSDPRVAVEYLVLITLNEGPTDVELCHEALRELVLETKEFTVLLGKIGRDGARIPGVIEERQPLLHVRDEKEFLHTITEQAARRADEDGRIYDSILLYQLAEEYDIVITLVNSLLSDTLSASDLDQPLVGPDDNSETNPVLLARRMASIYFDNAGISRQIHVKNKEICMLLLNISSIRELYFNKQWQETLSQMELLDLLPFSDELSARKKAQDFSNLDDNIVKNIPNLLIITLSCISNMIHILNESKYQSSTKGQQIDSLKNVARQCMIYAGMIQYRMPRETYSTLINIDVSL

binding result (Nup49)	binding result (Pom152)	binding result (Nup57)	binding result (Nsp1)	binding result (Nup192)	binding result (Nic96)	binding result (Pom34-ZZ)	Binder
binds	binds	binds	binds	binds	binds	–	VHH[Nic96]-ZZ (VHH) VHH: QVQLVETGGGLVQAGGSLRLSCATSGFNFRLRTMGWYRQAPGKERELVASITSGGSTDYADSVKGRFTISRDNAKNTISLEMNSLKPDDTAVYYCNIWAPTTAAITNWGQGTQVTVSS
–	–	–	–	–	–	binds	VHH[Nic96] (as expressed in the Pom34-ZZ strain) (VHH) VHH: QVQLVETGGGLVQAGGSLRLSCATSGFNFRLRTMGWYRQAPGKERELVASITSGGSTDYADSVKGRFTISRDNAKNTISLEMNSLKPDDTAVYYCNIWAPTTAAITNWGQGTQVTVSS

Reference: article doi:10.1101/2025.07.30.667432 (bioRxiv, 2025)
